Patent US20240261333A1, “NOVEL TARGETS FOR ENHANCING ANTI-TUMOR IMMUNITY” (THE BROAD INSTITUTE, INC., priority 2021, published 2024)

Legend:
RPLPO (human) = RPLPO (human) (UniProt P05388); assay: co-IP/MS, anti-FLAG IP of C-FLAG B3GNT2 cell lysate
PDIA6 (human) = PDIA6 (human) (UniProt Q15084); assay: as above
RPL12 (human) = RPL12 (human) (UniProt P30050); assay: as above
GCN1 (human) = GCN1 (human) (UniProt Q92616); assay: as above
RPS5 (human) = RPS5 (human) (UniProt P46782); assay: as above
SLC25A4 (human) = SLC25A4 (human) (UniProt P12235); assay: as above
FAM3C (human) = FAM3C (human) (UniProt Q92520); assay: as above
UQCRC2 (human) = UQCRC2 (human) (UniProt P22695); assay: as above
FKBP10 (human) = FKBP10 (human) (UniProt Q96AY3); assay: as above
ERLIN1 (human) = ERLIN1 (human) (UniProt O75477); assay: as above
IPO4 (human) = IPO4 (human) (UniProt Q8TEX9); assay: as above
RPL30 (human) = RPL30 (human) (UniProt P62888); assay: as above
CASP14 (human) = CASP14 (human) (UniProt P31944); assay: as above
RPS15 (human) = RPS15 (human) (UniProt P62841); assay: as above
CKAP4 (human) = CKAP4 (human) (UniProt Q07065); assay: as above
SQSTM1 (human) = SQSTM1 (human) (UniProt Q13501); assay: as above
RPL13A (human) = RPL13A (human) (UniProt P40429); assay: as above
ATP1A1 (human) = ATP1A1 (human) (UniProt P05023); assay: as above
CALU (human) = CALU (human) (UniProt O43852); assay: as above
ERLIN2 (human) = ERLIN2 (human) (UniProt O94905); assay: as above
DNAJA1 (human) = DNAJA1 (human) (UniProt P31689); assay: as above
RPL23A (human) = RPL23A (human) (UniProt P62750); assay: as above
RPL24 (human) = RPL24 (human) (UniProt P83731); assay: as above
RPL14 (human) = RPL14 (human) (UniProt P50914); assay: as above
TUBB (human) = TUBB (human) (UniProt P07437); assay: as above
HSD17B12 (human) = HSD17B12 (human) (UniProt Q53GQ0); assay: as above
CAPZB (human) = CAPZB (human) (UniProt P47756); assay: as above
PRDX1 (human) = PRDX1 (human) (UniProt Q06830); assay: as above
RPS9 (human) = RPS9 (human) (UniProt P46781); assay: as above
RPS3A (human) = RPS3A (human) (UniProt P61247); assay: as above
SLC27A4 (human) = SLC27A4 (human) (UniProt Q6P1M0); assay: co-IP with anti-FLAG, mass spectrometry; lysate of cells with C-FLAG B3GNT2
MAGT1 (human) = MAGT1 (human) (UniProt Q9H0U3); assay: as above
RPL26 (human) = RPL26 (human) (UniProt P61254); assay: as above
RPL9 (human) = RPL9 (human) (UniProt P32969); assay: as above
MSN (human) = MSN (human) (UniProt P26038); assay: as above
ILF3 (human) = ILF3 (human) (UniProt Q12906); assay: as above
GALNT2 (human) = GALNT2 (human) (UniProt Q10471); assay: as above
Chain of GALNT2 (human) (Q10471 whole entry): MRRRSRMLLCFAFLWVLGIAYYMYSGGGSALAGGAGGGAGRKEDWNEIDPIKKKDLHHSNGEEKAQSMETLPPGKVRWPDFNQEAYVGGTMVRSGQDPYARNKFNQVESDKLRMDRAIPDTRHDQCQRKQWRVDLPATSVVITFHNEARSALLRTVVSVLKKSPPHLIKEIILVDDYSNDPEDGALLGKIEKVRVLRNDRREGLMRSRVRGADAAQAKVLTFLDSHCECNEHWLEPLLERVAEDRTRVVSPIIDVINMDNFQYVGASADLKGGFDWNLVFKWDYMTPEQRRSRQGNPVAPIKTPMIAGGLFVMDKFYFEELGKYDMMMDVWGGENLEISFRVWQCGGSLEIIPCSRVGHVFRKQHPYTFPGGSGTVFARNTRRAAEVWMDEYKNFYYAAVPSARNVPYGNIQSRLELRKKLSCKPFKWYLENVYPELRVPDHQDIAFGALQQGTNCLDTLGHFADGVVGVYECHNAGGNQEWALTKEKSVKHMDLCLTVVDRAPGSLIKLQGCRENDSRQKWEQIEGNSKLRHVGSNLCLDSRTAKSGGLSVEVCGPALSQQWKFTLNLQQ

Chain of MSN (human) (P26038 2-577 limits assumed): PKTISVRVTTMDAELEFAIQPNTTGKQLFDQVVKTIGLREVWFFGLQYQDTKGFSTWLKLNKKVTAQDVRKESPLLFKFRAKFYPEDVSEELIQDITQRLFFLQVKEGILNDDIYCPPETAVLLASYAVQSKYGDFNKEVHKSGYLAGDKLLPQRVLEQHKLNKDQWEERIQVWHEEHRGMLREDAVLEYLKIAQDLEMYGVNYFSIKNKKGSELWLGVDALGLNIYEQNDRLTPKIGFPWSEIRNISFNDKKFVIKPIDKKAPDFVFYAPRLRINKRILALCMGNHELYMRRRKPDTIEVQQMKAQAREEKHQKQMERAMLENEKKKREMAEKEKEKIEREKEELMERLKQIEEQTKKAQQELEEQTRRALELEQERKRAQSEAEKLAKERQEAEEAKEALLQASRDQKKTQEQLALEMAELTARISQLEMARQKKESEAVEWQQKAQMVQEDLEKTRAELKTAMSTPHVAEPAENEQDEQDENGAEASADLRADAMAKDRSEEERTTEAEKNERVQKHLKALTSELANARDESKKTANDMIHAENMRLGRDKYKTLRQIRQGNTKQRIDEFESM
Chain of CKAP4 (human) (Q07065 whole entry): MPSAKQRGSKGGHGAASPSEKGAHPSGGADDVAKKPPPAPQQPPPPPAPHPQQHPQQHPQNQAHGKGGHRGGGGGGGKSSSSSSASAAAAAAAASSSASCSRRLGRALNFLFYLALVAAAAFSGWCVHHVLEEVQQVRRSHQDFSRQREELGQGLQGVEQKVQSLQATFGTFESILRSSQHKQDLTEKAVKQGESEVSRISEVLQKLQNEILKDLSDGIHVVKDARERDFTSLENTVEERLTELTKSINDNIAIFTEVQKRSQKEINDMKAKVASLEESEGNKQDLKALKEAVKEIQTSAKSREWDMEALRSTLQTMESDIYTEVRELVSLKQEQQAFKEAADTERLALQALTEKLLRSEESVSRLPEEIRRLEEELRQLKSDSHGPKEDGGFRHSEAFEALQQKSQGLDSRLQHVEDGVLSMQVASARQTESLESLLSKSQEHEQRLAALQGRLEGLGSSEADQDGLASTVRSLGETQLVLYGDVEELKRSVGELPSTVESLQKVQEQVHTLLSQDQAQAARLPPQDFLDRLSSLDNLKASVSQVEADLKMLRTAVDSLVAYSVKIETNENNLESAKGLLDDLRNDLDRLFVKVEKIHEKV
Chain of SLC25A4 (human) (P12235 2-298 limits assumed): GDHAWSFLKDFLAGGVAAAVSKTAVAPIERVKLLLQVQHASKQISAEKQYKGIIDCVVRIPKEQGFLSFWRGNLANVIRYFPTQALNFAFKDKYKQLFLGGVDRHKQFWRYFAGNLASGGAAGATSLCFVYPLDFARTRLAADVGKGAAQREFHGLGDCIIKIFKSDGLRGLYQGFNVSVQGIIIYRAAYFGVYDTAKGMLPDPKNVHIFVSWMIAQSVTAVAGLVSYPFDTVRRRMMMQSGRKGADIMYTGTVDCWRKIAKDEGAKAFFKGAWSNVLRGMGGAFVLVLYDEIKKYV
Chain of PDIA6 (human) (Q15084 20-440 limits assumed): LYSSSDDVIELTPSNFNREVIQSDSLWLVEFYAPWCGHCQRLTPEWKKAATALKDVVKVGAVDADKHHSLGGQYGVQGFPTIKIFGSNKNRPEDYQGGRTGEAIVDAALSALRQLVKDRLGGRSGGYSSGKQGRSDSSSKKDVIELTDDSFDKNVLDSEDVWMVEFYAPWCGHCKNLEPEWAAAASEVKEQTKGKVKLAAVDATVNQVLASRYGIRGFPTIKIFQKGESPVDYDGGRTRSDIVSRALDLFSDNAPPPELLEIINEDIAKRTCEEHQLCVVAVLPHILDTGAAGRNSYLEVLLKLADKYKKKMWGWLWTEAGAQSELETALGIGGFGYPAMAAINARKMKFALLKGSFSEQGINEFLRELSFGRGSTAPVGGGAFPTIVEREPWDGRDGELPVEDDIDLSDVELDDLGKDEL
Chain of IPO4 (human) (Q8TEX9 whole entry): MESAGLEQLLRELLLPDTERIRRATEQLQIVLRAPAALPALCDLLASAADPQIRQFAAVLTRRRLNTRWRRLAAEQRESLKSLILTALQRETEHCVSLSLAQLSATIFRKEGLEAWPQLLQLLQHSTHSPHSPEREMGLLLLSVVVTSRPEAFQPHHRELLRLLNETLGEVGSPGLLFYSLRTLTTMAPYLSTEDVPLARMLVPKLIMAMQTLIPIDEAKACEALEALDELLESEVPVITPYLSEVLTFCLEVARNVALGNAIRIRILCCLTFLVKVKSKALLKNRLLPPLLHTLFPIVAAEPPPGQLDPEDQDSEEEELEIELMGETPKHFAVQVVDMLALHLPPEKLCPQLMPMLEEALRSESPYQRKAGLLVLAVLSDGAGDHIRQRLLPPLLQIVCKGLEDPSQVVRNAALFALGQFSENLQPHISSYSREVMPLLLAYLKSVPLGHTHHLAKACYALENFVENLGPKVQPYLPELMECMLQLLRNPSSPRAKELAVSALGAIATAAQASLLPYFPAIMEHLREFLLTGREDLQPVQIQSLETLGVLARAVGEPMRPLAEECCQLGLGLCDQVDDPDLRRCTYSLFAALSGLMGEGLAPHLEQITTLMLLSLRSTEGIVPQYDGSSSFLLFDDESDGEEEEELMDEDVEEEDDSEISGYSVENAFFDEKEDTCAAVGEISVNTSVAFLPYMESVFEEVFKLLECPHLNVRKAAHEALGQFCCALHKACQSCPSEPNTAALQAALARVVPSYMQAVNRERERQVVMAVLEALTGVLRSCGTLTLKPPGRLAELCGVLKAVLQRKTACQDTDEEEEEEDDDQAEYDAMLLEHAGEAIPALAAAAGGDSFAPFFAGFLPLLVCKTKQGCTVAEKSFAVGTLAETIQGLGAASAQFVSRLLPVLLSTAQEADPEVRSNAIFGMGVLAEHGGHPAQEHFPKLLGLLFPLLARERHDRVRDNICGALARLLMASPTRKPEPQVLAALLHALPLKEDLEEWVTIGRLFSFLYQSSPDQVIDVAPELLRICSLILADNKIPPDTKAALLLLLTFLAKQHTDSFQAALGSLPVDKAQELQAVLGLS
Chain of TUBB (human) (P07437 whole entry): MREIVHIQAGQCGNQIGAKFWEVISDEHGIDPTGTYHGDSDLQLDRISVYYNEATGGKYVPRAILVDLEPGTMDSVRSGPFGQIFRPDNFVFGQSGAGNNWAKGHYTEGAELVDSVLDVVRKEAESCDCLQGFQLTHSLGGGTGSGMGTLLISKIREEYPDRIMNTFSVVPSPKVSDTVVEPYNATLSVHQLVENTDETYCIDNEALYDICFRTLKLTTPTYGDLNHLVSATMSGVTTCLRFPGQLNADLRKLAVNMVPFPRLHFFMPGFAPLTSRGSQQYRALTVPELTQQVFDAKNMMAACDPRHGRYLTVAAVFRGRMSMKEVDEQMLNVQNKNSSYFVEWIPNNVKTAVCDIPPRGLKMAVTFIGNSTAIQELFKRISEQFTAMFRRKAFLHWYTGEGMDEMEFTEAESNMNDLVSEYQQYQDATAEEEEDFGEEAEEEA
Chain of HSD17B12 (human) (Q53GQ0 whole entry): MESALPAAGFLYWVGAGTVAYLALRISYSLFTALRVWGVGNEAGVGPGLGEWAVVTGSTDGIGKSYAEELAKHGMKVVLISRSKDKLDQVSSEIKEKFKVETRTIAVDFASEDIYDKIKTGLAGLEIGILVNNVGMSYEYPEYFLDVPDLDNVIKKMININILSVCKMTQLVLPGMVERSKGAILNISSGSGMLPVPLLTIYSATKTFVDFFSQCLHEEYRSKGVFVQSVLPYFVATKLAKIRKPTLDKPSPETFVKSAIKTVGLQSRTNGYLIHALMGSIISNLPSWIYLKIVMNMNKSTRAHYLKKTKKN
Chain of ERLIN1 (human) (O75477 whole entry): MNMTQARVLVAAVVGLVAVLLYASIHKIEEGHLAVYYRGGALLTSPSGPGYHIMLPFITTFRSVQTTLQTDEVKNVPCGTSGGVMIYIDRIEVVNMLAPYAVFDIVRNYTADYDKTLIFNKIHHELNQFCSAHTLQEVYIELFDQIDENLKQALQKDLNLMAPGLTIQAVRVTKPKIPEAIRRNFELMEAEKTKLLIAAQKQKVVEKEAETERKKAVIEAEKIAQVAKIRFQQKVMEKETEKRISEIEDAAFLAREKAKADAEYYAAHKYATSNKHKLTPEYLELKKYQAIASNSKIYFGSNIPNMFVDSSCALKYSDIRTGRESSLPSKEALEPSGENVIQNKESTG
Chain of FAM3C (human) (Q92520 25-227 limits assumed): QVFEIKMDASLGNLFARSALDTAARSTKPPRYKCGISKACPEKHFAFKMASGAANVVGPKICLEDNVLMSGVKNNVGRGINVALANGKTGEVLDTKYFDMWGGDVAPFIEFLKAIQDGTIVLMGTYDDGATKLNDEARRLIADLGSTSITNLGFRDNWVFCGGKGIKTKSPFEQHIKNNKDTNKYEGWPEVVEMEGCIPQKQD

## C-terminal FLAG tagged B3GNT2 (from UniProt Q9NY97 1-397) (enzyme)
RPLPO (human)
  co-IP mass spectrometry count: 10
PDIA6 (human)
  co-IP mass spectrometry count: 14
RPL12 (human)
  co-IP mass spectrometry count: 11
GCN1 (human)
  co-IP mass spectrometry count: 4
RPS5 (human)
  co-IP mass spectrometry count: 6
SLC25A4 (human)
  co-IP mass spectrometry count: 14
FAM3C (human)
  co-IP mass spectrometry count: 23
UQCRC2 (human)
  co-IP mass spectrometry count: 4
FKBP10 (human)
  co-IP mass spectrometry count: 16
ERLIN1 (human)
  co-IP mass spectrometry count: 9
IPO4 (human)
  co-IP mass spectrometry count: 17
RPL30 (human)
  co-IP mass spectrometry count: 14
CASP14 (human)
  co-IP mass spectrometry count: 9
RPS15 (human)
  co-IP mass spectrometry count: 11
CKAP4 (human)
  co-IP mass spectrometry count: 14
SQSTM1 (human)
  co-IP mass spectrometry count: 43
RPL13A (human)
  co-IP mass spectrometry count: 13
ATP1A1 (human)
  co-IP mass spectrometry count: 12
CALU (human)
  co-IP mass spectrometry count: 13
ERLIN2 (human)
  co-IP mass spectrometry count: 9
DNAJA1 (human)
  co-IP mass spectrometry count: 10
RPL23A (human)
  co-IP mass spectrometry count: 10
RPL24 (human)
  co-IP mass spectrometry count: 14
RPL14 (human)
  co-IP mass spectrometry count: 21
TUBB (human)
  co-IP mass spectrometry count: 117
HSD17B12 (human)
  co-IP mass spectrometry count: 10
CAPZB (human)
  co-IP mass spectrometry count: 5
PRDX1 (human)
  co-IP mass spectrometry count: 6
RPS9 (human)
  co-IP mass spectrometry count: 6
RPS3A (human)
  co-IP mass spectrometry count: 29
SLC27A4 (human)
  co-IP mass spectrometry count: 2
MAGT1 (human)
  co-IP mass spectrometry count: 2
RPL26 (human)
  co-IP mass spectrometry count: 12
RPL9 (human)
  co-IP mass spectrometry count: 7
MSN (human)
  co-IP mass spectrometry count: 4
ILF3 (human)
  co-IP mass spectrometry count: 5
GALNT2 (human)
  co-IP mass spectrometry count: 2
